Data set [1] has as its target LARGE1 without its CC domain (-CC), soluble secreted form (human) (UniProt O95461). In words: mass photometry.
Data set [2] has the same target. As to the kind of experiment: cryo-EM structure.
For data set [3] the target is unchanged. In words: crystal structure.
The data set “mass photometry” concerns the molecule itself. In words: mass photometry.

“LARGE1 without its CC domain (-CC), soluble secreted form (from UniProt O95461 96-276) (domain or fragment)”: the stoichiometry N in data set [1], in data set [2] and in data set [3] was 2 in each case.

B1: LARGE1 with its coiled-coil (+CC) domain (residues 29-756), soluble secreted form (domain or fragment, human, UniProt O95461 29-756, looked up)
chain: LFSGSFEDGKPVSLSPLESQAHSPRYTASSQRERESLEVRMREVEEENRALRRQLSLAQGRAPSHRRGNHSKTYSMEEGTGDSENLRAGIVAGNSSECGQQPVVEKCETIHVAIVCAGYNASRDVVTLVKSVLFHRRNPLHFHLIADSIAEQILATLFQTWMVPAVRVDFYNADELKSEVSWIPNKHYSGIYGLMKLVLTKTLPANLERVIVLDTDITFATDIAELWAVFHKFKGQQVLGLVENQSDWYLGNLWKNHRPWPALGRGYNTGVILLLLDKLRKMKWEQMWRLTAERELMGMLSTSLADQDIFNAVIKQNPFLVYQLPCFWNVQLSDHTRSEQCYRDVSDLKVIHWNSPKKLRVKNKHVEFFRNLYLTFLEYDGNLLRRELFGCPSEADVNSENLQKQLSELDEDDLCYEFRRERFTVHRTHLYFLHYEYEPAADSTDVTLVAQLSMDRLQMLEAICKHWEGPISLALYLSDAEAQQFLRYAQGSEVLMSRHNVGYHIVYKEGQFYPVNLLRNVAMKHISTPYMFLSDIDFLPMYGLYEYLRKSVIQLDLANTKKAMIVPAFETLRYRLSFPKSKAELLSMLDMGTLFTFRYHVWTKGHAPTNFAKWRTATTPYRVEWEADFEPYVVVRRDCPEYDRRFVGFGWNKVAHIMELDVQEYEFIVLPNAYMIHMPHAPSFDITKFRSNKQYRICLKTLKEEFQQDMSRRYGFAALKYLTAENNS
As to B1, the “stoichiometry N” value in the data set “mass photometry” was 2.

Broadly, the stoichiometry N is the number of molecules, sites or subunits per partner or assembly.

These data come from paper doi:10.1101/2022.05.11.491581 (bioRxiv, 2022).
